Reference: article PMC13544220, “Glycemic and bodyweight effects of GIPR coding variation reflect differences in surface expression and intrinsic functional impairment” (Science Advances, 2026)
Changes are numbered by the printed parent chain. Names and notes keep the numbering of the source.

Key:
Type in all cases: cell-based, human
[1] = system: wild-type and variant SNAP-GIPR; assay: Constitutive and agonist-mediated internalization, reversible SNAP-tag labelling, INS-1 cells; parameters: key to Internalisation, GIP-only / Internalisation, Vehicle / Internalisation, +GIP: % internalization: residual fluorescence after Mesna vs pre-Mesna; conditions: Mean; for +GIP internalisation (100 nM) / GIP-specific internalisation (100 nM) / Constitutive internalisation (100 nM): Fig 4G; for +GIP internalisation (100 nM) / GIP-specific internalisation (100 nM): GIP 100 nM; for Internalisation, +GIP / Internalisation, GIP-only / Internalisation, Vehicle: Fig S4C, INS-1
Method in brief: (§1)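 % internalization = residual specific fluorescence after Mesna / pre-Mesna value. Imaging in TNE buffer pH 8.6; second image 10 min post-Mesna.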

[2] = system: wild-type and variant SNAP-GIPR; assay: cADDis cAMP imaging in AD293 cells, ensemble, expression-matched and per decile; conditions: Fig S3F, cADDis, mean
Method in brief: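 Per-cell cAMP from cADDis intensity over time, with cells excluded by IBMX/FSK response criteria. Expression matching used wild-type surface-SNAP deciles, top and bottom trimmed, mean of decile means. Ensemble values ignore deciles. Wide-field imaging at 37 °C in KRBH with 6 mM glucose, 0.1% BSA, 24 h post-transfection in AD293.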

[3] = system: wild-type and variant SNAP-GIPR; assay: Constitutive and agonist-mediated internalization, reversible SNAP-tag labelling, AD293 cells; parameters: key to Internalisation, Vehicle / Internalisation, +GIP / Internalisation, GIP-only: % internalization: residual fluorescence after Mesna vs pre-Mesna; Surface expression: unit not given here; conditions: Mean; for +GIP internalisation (100 nM) / GIP-specific internalisation (100 nM) / Constitutive internalisation (100 nM) / Surface expression: Fig 4E; for +GIP internalisation (100 nM) / GIP-specific internalisation (100 nM): GIP 100 nM; for Internalisation, +GIP / Internalisation, GIP-only / Internalisation, Vehicle: Fig S4C, AD293
Method in brief: as §1

[4] = system: wild-type and variant SNAP-GIPR; assay: Surface SNAP-GIPR expression (SNAP-tag labelling) in AD293 cells; conditions: for AD293 Surface: Fig S3E, mean; for Surface SNAP-GIPR expression: sheet Fig 1C;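 as to all read-outs here: scaled to the experimental average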
Method in brief: (§2)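 Surface GIPR is quantified from wide-field images after labelling intact transfected cells with a membrane-impermeant SNAP probe at 500 nM for 10 min at room temperature. Specific signal, corrected for nontransfected cells, is normalized to the experiment-wide average or to wild-type.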

[5] = system: wild-type and variant SNAP-GIPR; assay: Single-concentration GIP cAMP response by HTRF in INS-1 cells; conditions: Fig S3E, mean
Protocol: (§3) All variants were tested in parallel on each occasion to control for transfection efficiency differences between experiments.

[6] = system: wild-type and variant SNAP-GIPR; assay: Single-concentration GIP cAMP response by HTRF in AD293 cells; conditions: Fig S3F, HTRF, mean;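 also: ratio to experiment-wide average response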
Protocol: as §3

[7] = system: wild-type and variant SNAP-GIPR; assay: Surface SNAP-GIPR expression (SNAP-tag labelling) in INS-1 cells; conditions: Fig 4G; Mean
Method in brief: as §2

[8] = column repeated, paired with cAMP 100 nM

B1: G438S (protein, UniProt P48546 22-466, looked up, variant G438S)
Gastric inhibitory …: RAETGSKGQTAGELYQRWERYRRECQETLAAAEPPSGLACNGSFDMYVCWDYAAPNATARASCPWYLPWHHHVAAGFVLRQCGSDGQWGLWRDHTQCENPEKNEAFLDQRLILERLQVMYTVGYSLSLATLLLALLILSLFRRLHCTRNYIHINLFTSFMLRAAAILSRDRLLPRPGPYLGDQALALWNQALAACRTAQIVTQYCVGANYTWLLVEGVYLHSLLVLVGGSEEGHFRYYLLLGWGAPALFVIPWVIVRYLYENTQCWERNEVKAIWWIIRTPILMTILINFLIFIRILGILLSKLRTRQMRCRDYRLRLARSTLTLVPLLGVHEVVFAPVTEEQARGALRFAKLGFEIFLSSFQGFLVSVLYCFINKEVQSEIRRGWHHCRLRRSLGEEQRQLPERAFRALPSGSGPSEVPTSRGLSSGTLPGPGNEASRELESYC
- +GIP internalisation (100 nM) [1]: 0.7615
- GIP-specific internalisation (100 nM) [1]: 0.2318
- Constitutive internalisation (100 nM) [1]: 0.5297
- Internalisation, +GIP [1]: 53.475
- Internalisation, GIP-only [1]: 16.2333
- Internalisation, Vehicle [1]: 37.2417
- AD293 100 pM cADDis [2]: 35.9341
- AD293 100 nM cADDis [2]: 39.48
- +GIP internalisation (100 nM) [3]: 0.9894
- GIP-specific internalisation (100 nM) [3]: 0.334
- Constitutive internalisation (100 nM) [3]: 0.6554
- Surface expression [3]: 1.622
- Internalisation, +GIP [3]: 61.1161
- Internalisation, GIP-only [3]: 20.3657
- Internalisation, Vehicle [3]: 40.7504
- AD293 Surface [4, 8]: 1.603
- AD293 Surface ([4]; paired with cAMP 100 pM): 1.603
- Surface SNAP-GIPR expression ([4]; replicate 1): 1.682
- Surface SNAP-GIPR expression ([4]; replicate 2): 1.688
- Surface SNAP-GIPR expression ([4]; replicate 3): 1.832
- Surface SNAP-GIPR expression ([4]; replicate 4): 2.161
- Surface SNAP-GIPR expression ([4]; replicate 5): 1.111
- Surface SNAP-GIPR expression ([4]; replicate 6): 1.49
- Surface SNAP-GIPR expression ([4]; replicate 7): 1.615
- Surface SNAP-GIPR expression ([4]; replicate 8): 1.417
- Surface SNAP-GIPR expression ([4]; replicate 9): 1.842
- Surface SNAP-GIPR expression ([4]; replicate 10): 1.526
- Surface SNAP-GIPR expression ([4]; replicate 11): 1.806
- Surface SNAP-GIPR expression ([4]; replicate 12): 1.746
- Surface SNAP-GIPR expression ([4]; replicate 13): 1.595
- Surface SNAP-GIPR expression ([4]; replicate 14): 2.152
- Surface SNAP-GIPR expression ([4]; replicate 15): 1.581
- Surface SNAP-GIPR expression ([4]; replicate 16): 1.661
- Surface SNAP-GIPR expression ([4]; replicate 17): 1.607
- Surface SNAP-GIPR expression ([4]; replicate 18): 1.471
- Surface SNAP-GIPR expression ([4]; replicate 19): 1.527
- Surface SNAP-GIPR expression ([4]; replicate 20): 1.649
- Surface SNAP-GIPR expression ([4]; replicate 21): 1.401
- Surface SNAP-GIPR expression ([4]; replicate 22): 1.64
- Surface SNAP-GIPR expression ([4]; replicate 23): 1.516
- Surface SNAP-GIPR expression ([4]; replicate 24): 1.737
- Surface SNAP-GIPR expression ([4]; replicate 25): 1.567
- Surface SNAP-GIPR expression ([4]; replicate 26): 1.448
- Surface SNAP-GIPR expression ([4]; replicate 27): 1.549
- Surface SNAP-GIPR expression ([4]; replicate 28): 1.925
- Surface SNAP-GIPR expression ([4]; replicate 29): 1.515
- Surface SNAP-GIPR expression ([4]; replicate 30): 1.373
- Surface SNAP-GIPR expression ([4]; replicate 31): 1.117
- Surface SNAP-GIPR expression ([4]; replicate 32): 1.576
- Surface SNAP-GIPR expression ([4]; replicate 33): 1.347
- Surface SNAP-GIPR expression ([4]; replicate 34): 1.595
- Surface SNAP-GIPR expression ([4]; replicate 35): 1.243
- Surface SNAP-GIPR expression ([4]; replicate 36): 1.381
- Surface SNAP-GIPR expression ([4]; replicate 37): 1.612
- Surface SNAP-GIPR expression ([4]; replicate 38): 1.594
- Surface SNAP-GIPR expression ([4]; replicate 39): 1.863
- Surface SNAP-GIPR expression ([4]; replicate 40): 1.797
- Surface SNAP-GIPR expression ([4]; replicate 41): 1.787
- INS-1 cAMP (100 nM) [5]: 1.306
- AD293 100 pM HTRF [6]: 1.746
- AD293 100 nM HTRF [6]: 1.655
- Surface expression [7]: 1.361

B2: R300W (protein, UniProt P48546 22-466, looked up, variant R300W)
Gastric inhibitory …: B1 Gastric inhibitory … with R279W, S417G
- +GIP internalisation (100 nM) [1]: 0.4496
- GIP-specific internalisation (100 nM) [1]: 0.1127
- Constitutive internalisation (100 nM) [1]: 0.3368
- Internalisation, +GIP [1]: 49.27
- Internalisation, GIP-only [1]: 12.1983
- Internalisation, Vehicle [1]: 37.0717
- AD293 100 pM cADDis [2]: 30.0031
- AD293 100 nM cADDis [2]: 37.61
- +GIP internalisation (100 nM) [3]: 0.5841
- GIP-specific internalisation (100 nM) [3]: 0.1667
- Constitutive internalisation (100 nM) [3]: 0.4174
- Surface expression [3]: 1.0064
- Internalisation, +GIP [3]: 57.8459
- Internalisation, GIP-only [3]: 16.6116
- Internalisation, Vehicle [3]: 41.2342
- AD293 Surface [4, 8]: 0.7271
- AD293 Surface ([4]; paired with cAMP 100 pM): 0.7271
- Surface SNAP-GIPR expression ([4]; replicate 1): 0.3062
- Surface SNAP-GIPR expression ([4]; replicate 2): 0.3328
- Surface SNAP-GIPR expression ([4]; replicate 3): 0.1592
- Surface SNAP-GIPR expression ([4]; replicate 4): 0.8304
- Surface SNAP-GIPR expression ([4]; replicate 5): 0.6683
- Surface SNAP-GIPR expression ([4]; replicate 6): 0.6889
- Surface SNAP-GIPR expression ([4]; replicate 7): 0.4744
- Surface SNAP-GIPR expression ([4]; replicate 8): 0.7417
- Surface SNAP-GIPR expression ([4]; replicate 9): 0.7319
- Surface SNAP-GIPR expression ([4]; replicate 10): 0.4888
- Surface SNAP-GIPR expression ([4]; replicate 11): 0.5692
- Surface SNAP-GIPR expression ([4]; replicate 12): 0.5524
- Surface SNAP-GIPR expression ([4]; replicate 13): 0.6029
- Surface SNAP-GIPR expression ([4]; replicate 14): 0.8734
- Surface SNAP-GIPR expression ([4]; replicate 15): 0.6318
- Surface SNAP-GIPR expression ([4]; replicate 16): 0.7838
- Surface SNAP-GIPR expression ([4]; replicate 17): 0.7645
- Surface SNAP-GIPR expression ([4]; replicate 18): 0.8288
- Surface SNAP-GIPR expression ([4]; replicate 19): 0.8256
- Surface SNAP-GIPR expression ([4]; replicate 20): 0.8307
- Surface SNAP-GIPR expression ([4]; replicate 21): 0.7929
- Surface SNAP-GIPR expression ([4]; replicate 22): 0.7293
- Surface SNAP-GIPR expression ([4]; replicate 23): 0.8041
- Surface SNAP-GIPR expression ([4]; replicate 24): 0.7665
- Surface SNAP-GIPR expression ([4]; replicate 25): 0.8609
- Surface SNAP-GIPR expression ([4]; replicate 26): 0.8382
- Surface SNAP-GIPR expression ([4]; replicate 27): 0.9176
- Surface SNAP-GIPR expression ([4]; replicate 28): 0.9055
- Surface SNAP-GIPR expression ([4]; replicate 29): 1.047
- Surface SNAP-GIPR expression ([4]; replicate 30): 0.4161
- Surface SNAP-GIPR expression ([4]; replicate 31): 0.3148
- Surface SNAP-GIPR expression ([4]; replicate 32): 0.4777
- Surface SNAP-GIPR expression ([4]; replicate 33): 0.3827
- Surface SNAP-GIPR expression ([4]; replicate 34): 0.923
- Surface SNAP-GIPR expression ([4]; replicate 35): 0.8683
- Surface SNAP-GIPR expression ([4]; replicate 36): 0.9333
- Surface SNAP-GIPR expression ([4]; replicate 37): 0.8174
- Surface SNAP-GIPR expression ([4]; replicate 38): 1.012
- Surface SNAP-GIPR expression ([4]; replicate 39): 1.271
- Surface SNAP-GIPR expression ([4]; replicate 40): 1.105
- Surface SNAP-GIPR expression ([4]; replicate 41): 0.9446
- INS-1 cAMP (100 nM) [5]: 1.326
- AD293 100 pM HTRF [6]: 0.5327
- AD293 100 nM HTRF [6]: 1.632
- Surface expression [7]: 0.9197
